Assay [1] has as its target recombinant murine PrP 23–231 (murine) (UniProt P04925). Nature of the assay: ELISA. For orientation: ELISA stands for enzyme-linked immunosorbent assay.
Assay [2] has the same target. As to the kind of experiment: ELISA. This is another data set of the same source.

pEC50: −log10 of the molar value. Like-named read-outs stand apart in the source and are kept apart here.

Chain of UniProt P04925 (P04925 23-231): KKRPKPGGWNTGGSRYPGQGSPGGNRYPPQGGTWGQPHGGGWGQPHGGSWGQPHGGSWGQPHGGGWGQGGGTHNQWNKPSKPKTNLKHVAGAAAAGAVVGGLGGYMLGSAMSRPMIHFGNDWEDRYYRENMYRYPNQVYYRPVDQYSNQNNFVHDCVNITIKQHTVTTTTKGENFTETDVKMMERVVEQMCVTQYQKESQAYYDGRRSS

Take Aβ1–42 fibrils (peptide): in assay [1], the pEC50 is 5.76.

Take “Aβ-derived diffusible ligands (ADDLs), a preparation of Aβ1–42 (peptide)”: the pEC50 is 6.63 in assay [1] and 6.95 in assay [2].

The pEC50 is −log10 of the EC50, conventionally taken in molar units.

The values above are taken from PMC6431553.
